These results are taken from article doi:10.1101/2023.01.09.523197 (bioRxiv, 2023).

This series deals with the molecule itself. Put plainly: crystal structure.

B1: Saccharopolyspora erythraea GlnR-DBD (domain or fragment)
chain: DGMLTVGDLVIEESTYTARLKGRALELTYKEFELLKYLAQHAGRVFTRAQLLQEVWGYDFFGGTRTVDVHVRRLRAKLGPEYDSMIGTVRNVGYKFVRPS
Take B1: the binding result was “binds”.
